Source: patent publication US20040248211A1, “ICAM-related protein” (priority 1992, published 2004)

Columns and labels:
ICAM-R on PBL = biological target: T1, ICAM-R on PBL (Homo sapiens, UniProt P32942); test: FACS-based competition assay; type: binding; settings: 5 μg antibody; equivalent on SKW3
T1 construct: endogenous in cells; host or cells: human peripheral blood leukocytes
T1 sequence (P32942 30-547): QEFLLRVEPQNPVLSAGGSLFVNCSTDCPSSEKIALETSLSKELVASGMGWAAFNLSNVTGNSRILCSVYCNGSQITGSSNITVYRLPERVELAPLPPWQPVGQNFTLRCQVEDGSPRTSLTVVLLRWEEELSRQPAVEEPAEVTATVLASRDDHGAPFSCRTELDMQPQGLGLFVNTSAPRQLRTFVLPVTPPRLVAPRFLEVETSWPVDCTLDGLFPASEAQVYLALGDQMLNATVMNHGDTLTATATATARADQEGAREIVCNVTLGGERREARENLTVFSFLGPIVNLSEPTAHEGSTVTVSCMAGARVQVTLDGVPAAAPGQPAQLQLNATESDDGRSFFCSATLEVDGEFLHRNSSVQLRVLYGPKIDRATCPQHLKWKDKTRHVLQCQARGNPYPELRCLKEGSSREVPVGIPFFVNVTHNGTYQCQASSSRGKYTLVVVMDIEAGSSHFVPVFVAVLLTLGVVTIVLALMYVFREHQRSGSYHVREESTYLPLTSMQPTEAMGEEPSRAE
Experimental: In the assays, human peripheral blood leukocytes (PBL) obtained by Ficoll Hypaque centrifugation of normal peripheral blood were washed twice in ice cold FACS buffer (PBS containing 0.1% sodium azide and 1% bovine serum albumin) and 2×10^5 cells were incubated in triplicate polypropylene tubes with 5 μg of each of the following antibodies ICR-1.1, ICR-4.2, and control isotype IgG (Sigma). All tubes containing the first stage antibodies were then incubated for 30 minutes at 4° C. and washed twice in cold FACS buffer. To each triplicate tube, 5 μg of each of the following second stage antibodies were added: biotinylated-ICR-1.1, biotinylated-ICR-4.2, biotinylated-anti-rat CD4 (negative control). All second stage antibodies were bibtinylated according to standard procedures as described in Example 12 and all tubes were then incubated for an additional 30 minutes at 4° C. before washing twice in FACS buffer. […] Finally, all tubes were washed twice in FACS buffer and analyzed by flow cytometry (FACScan, Becton-Dickinson).
SKW3 cells were labelled with either 1 μg of antibody ICR-1.1 or ICR-4.2, washed in FACS buffer and incubated with 1 μg biotinylated-ICR-1.1 or biotinylated ICR-4.2. All tubes were then washed in FACS buffer, incubated with Strepavidin-phycoerythrin for an additional 30 minutes at 4° C. and analyzed by FACScan.

SKW3 T cells = test: Homotypic aggregation assay, SKW3; type: cell-based, human; settings: after four hours, Ig and Fab′ at 1 μg/ml
Experimental: Aggregation assays were done in duplicate, with and without addition of PMA (50 ng/ml). 3×10^5 cells in RPMI 1640 medium with 10% fetal calf serum were added in a flat-bottomed 96-well microtest plate. When one antibody was tested in an experiment, 50 μl of purified antibody or hybridoma supernatant were added to the wells (PMA was added at the same time to selected wells). When two antibodies were tested in the same experiment, the antibodies were added sequentially to the cells at room temperature and incubated for 30 minutes each (incubation for 15 minutes at 37° C. produced the same results), and then the cells were incubated at 37° C. […] After incubation with the antibody or antibodies, cells were uniformly resuspended and then incubated at 37° C. for 4 to 24 hours. Aggregation scoring was done with an inverted microscope. In each experiment, the efficacy of the PMA stimulation was checked in parallel by stimulating Raji cells with an equal amount of PMA and determining the amount of aggregation blockable by monoclonal antibodies to CD18, CD11 a, and ICAM-1 molecules.
To confirm that aggregation was induced by the anti-ICAM-R antibodies ICR-2.1, ICR-1.1, and ICR-3.1 the aggregation assays were performed using both the whole immunoglobulin (ICR-1.1-Ig) and Fab′ fragments (ICR-1.1-Fab′) purified from the same anti-ICAM-R monoclonal antibody (ICR-1.1). […]

human PBL = test: SEA-induced aggregation of PBL; type: cell-based; settings: versus plate-bound B-H9
[1] = tested on: Fraction C cells (quiescent CD3 positive PBL); test: IL-2 production by T lymphocytes after prepulse on antibody; type: cell-based, human; settings: 18 hours prepulse on immobilized antibody, then anti-CD3 OKT3
Experimental: Human PBL were obtained by Ficoll-Hypaque centrifugation of whole peripheral blood. Adherent cells were depleted by incubation on plastic and nonadherent cells were subjected to discontinuous centrifugation on Percoll gradients to further separate subsets of lymphocytes into medium buoyant density (fraction B) and high buoyant density (fraction C) cell populations. Prior to cell addition, wells were coated with monoclonal antibodies by addition of 0.1 ml each antibody at 5 ug/ml in PBS per microtiter well. Following antibody addition, all wells were incubated overnight at 4 degrees and each well was washed free of unbound antibody by PBS rinsing prior to addition of cells. Each cell fraction was then incubated for 18 hours on either ICR-1.1, ICR-4.2 or control antibodies to human major Histocompatibility Complex Class I (MHC Class I). For these experiments 2×10^5 cells per well were added in a volume of 0.2 ml RPMI-1640 containing 10% FCS to individual wells of a 96 well flat bottom microtiter plate (Costar, Cambridge, Mass.). After 18-20 hours incubation at 37° C., the cells were collected from the microtiter wells and washed twice in RPMI-1640 media containing 10% FCS and adjusted to 1×10^6 per ml in RPMI-1640 containing 10% FCS. […]

B1: ICR-1.1: anti-ICAM-R monoclonal antibody, IgG2a, domain 1, ATCC HB 11053 (antibody, V domains shown)
VH: QVQLQQSGAELAKPGASVKMSCKASGYTFTVYWMHWVKQRPGQGLEWIGYINPNTDYTEYNQRFQDKATLTADKSSSTAYMQLSSLTSEDSAVYYCARWGGNSYGLDYWGQGTSVTVSS
VL: QIVLTQSPALMSASPGEKVTMTCSASSSVSYIYWYQQKPRSSPKPWIYLTSNLASGVPARFSGSGSGASYSLTISIMEAEDAATYYCQQWKSIPLTFGAGTKLELK
ICAM-R on PBL
  blocking of biotinylated-ICR-1.1 binding: did block binding of biotinylated-ICR-1.1
  blocking of biotinylated-ICR-4.2 binding: did not block binding of monoclonal antibody ICR-4.2
SKW3 T cells
  Aggregation: 3 (50 to 100% cells were in loose clusters)
Human PBL
  SEA-induced cell aggregation, plate-bound antibody: almost complete
[1]
  IL-2 produced relative to prepulse on negative control antibodies: less than 50%
